According to US20240000957A1 (published 2024):

T1: Human EphA6 Fc fusion (Human, UniProt Q9UF33 23-550, limits assumed)
T1 construct: SPR; R&D Systems 5606-A6
T1 sequence (looked up): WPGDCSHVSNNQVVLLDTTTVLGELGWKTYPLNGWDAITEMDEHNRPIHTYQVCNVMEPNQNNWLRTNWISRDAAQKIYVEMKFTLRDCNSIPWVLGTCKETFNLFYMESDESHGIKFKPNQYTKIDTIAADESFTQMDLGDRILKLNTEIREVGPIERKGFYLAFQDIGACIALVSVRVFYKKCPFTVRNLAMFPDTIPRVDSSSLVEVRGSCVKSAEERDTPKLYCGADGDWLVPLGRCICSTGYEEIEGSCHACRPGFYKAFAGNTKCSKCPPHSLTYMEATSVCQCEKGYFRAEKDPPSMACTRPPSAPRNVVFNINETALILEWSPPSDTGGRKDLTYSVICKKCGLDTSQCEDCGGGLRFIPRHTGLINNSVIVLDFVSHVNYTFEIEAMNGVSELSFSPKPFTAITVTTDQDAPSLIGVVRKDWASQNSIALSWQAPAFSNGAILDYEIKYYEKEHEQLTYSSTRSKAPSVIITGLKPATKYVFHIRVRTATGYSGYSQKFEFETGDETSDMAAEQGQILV

T2: Human EphA7 Fc fusion (Human, UniProt Q15375 28-555, limits assumed)
T2 construct: SPR; R&D Systems 6756-A7
T2 sequence (looked up): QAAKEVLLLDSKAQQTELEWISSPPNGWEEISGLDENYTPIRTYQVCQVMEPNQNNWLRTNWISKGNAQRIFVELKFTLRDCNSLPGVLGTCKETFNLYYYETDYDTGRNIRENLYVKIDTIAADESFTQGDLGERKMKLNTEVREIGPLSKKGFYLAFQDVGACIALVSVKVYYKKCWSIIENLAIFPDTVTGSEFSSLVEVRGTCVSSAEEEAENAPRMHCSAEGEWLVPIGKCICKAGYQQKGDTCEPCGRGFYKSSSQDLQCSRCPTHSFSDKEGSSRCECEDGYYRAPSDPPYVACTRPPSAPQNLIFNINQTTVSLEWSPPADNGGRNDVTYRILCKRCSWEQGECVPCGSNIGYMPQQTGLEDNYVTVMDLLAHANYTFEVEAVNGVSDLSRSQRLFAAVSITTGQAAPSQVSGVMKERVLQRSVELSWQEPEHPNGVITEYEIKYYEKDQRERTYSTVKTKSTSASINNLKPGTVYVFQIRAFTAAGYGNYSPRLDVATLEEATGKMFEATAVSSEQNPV

T3: Rat EphB1 Fc fusion (Rat, UniProt P09759 18-540, limits assumed)
T3 construct: SPR; R&D Systems 1596-B1
T3 sequence (looked up): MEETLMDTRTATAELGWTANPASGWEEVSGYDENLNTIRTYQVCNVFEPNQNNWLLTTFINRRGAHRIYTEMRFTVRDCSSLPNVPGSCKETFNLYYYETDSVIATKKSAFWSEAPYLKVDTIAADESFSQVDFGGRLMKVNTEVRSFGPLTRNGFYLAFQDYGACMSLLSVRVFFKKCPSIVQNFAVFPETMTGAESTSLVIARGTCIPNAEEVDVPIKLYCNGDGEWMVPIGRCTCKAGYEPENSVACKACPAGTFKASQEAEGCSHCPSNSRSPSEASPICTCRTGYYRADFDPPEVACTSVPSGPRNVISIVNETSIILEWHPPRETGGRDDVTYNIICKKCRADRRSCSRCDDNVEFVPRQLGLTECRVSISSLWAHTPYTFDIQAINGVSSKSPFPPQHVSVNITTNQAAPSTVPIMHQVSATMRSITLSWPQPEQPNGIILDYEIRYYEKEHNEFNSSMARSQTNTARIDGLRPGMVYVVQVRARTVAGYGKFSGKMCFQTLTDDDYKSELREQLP

T4: Human EphA6 Fc fusion (Human, UniProt Q9UF33 23-550, limits assumed)
T4 construct: Bought Fc fusion; also called R&D Systems 5606-A6; not shown: Fc of the bought fusion
T4 sequence (looked up): T1 sequence (looked up)

T5: Human EphA7 Fc fusion (Human, UniProt Q15375 28-555, limits assumed)
T5 construct: Bought Fc fusion; also called R&D Systems 6756-A7; not shown: Fc of the bought fusion
T5 sequence (looked up): T2 sequence (looked up)

T6: Human EphB4 Fc fusion (Human, UniProt P54760 16-539)
T6 construct: Bought Fc fusion; also called Sino Biologics 10235-H02H; not shown: Fc of the bought fusion
T6 sequence (looked up): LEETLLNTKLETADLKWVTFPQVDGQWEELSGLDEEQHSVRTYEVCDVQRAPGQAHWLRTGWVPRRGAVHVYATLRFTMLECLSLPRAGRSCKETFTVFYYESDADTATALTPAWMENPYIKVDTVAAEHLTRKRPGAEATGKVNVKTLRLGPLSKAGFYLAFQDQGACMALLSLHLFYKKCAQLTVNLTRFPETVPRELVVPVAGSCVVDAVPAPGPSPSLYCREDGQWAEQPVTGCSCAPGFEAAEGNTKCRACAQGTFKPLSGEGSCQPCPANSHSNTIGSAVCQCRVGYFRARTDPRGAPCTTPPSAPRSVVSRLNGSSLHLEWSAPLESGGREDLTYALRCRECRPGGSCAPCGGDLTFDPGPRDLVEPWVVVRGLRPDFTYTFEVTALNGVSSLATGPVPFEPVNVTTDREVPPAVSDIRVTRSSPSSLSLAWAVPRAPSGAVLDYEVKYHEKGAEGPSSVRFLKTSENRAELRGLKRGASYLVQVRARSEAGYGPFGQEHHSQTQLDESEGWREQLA

B1: BCY6033 (peptide)
peptide: AXDCPLVNPLCLHPGWTC
modifications: not fully specified; as BCY6014 (N-terminal (β-Ala)-Sar10; HArg; TATA scaffold on the 3 Cys) + ValCit-MMAE
notes: Bicycle drug conjugate (BDC)
B2: BCY6082 (peptide)
peptide: AXDCPLVNPLCLHPGWTC
modifications: not fully specified; as BCY6014 (N-terminal (β-Ala)-Sar10; HArg; TATA scaffold on the 3 Cys) + DM1-SS(SO3H)-
notes: Bicycle drug conjugate (BDC)
B3: BCY6033 (peptide)
peptide: AXDCPLVNPLCLHPGWTC
modifications: not fully specified; N-terminal (β-Ala)-Sar10 spacer precedes SEQ ID NO: 11; HArg (homoarginine) at residue 2 of SEQ ID NO: 11; three Cys cyclised on the TATA scaffold; ValCit-MMAE (MMAE-PABC-Cit-Val-glutarate) on the N-terminal amine
B4: BCY6082 (peptide)
peptide: AXDCPLVNPLCLHPGWTC
modifications: not fully specified; N-terminal (β-Ala)-Sar10 spacer precedes SEQ ID NO: 11; HArg (homoarginine) at residue 2 of SEQ ID NO: 11; three Cys cyclised on the TATA scaffold; DM1-SS(SO3H)- (DM1-SO3H-SPDB) on the N-terminal amine

Tests used:
Human EphA4 Fc fusion [1] = biological target: T7, Human EphA4 Fc fusion (Human, UniProt P54764 20-547); test: SPR
T7 construct: SPR; Sino Biologics 11314-H03H
T7 sequence (P54764 20-547 limits assumed): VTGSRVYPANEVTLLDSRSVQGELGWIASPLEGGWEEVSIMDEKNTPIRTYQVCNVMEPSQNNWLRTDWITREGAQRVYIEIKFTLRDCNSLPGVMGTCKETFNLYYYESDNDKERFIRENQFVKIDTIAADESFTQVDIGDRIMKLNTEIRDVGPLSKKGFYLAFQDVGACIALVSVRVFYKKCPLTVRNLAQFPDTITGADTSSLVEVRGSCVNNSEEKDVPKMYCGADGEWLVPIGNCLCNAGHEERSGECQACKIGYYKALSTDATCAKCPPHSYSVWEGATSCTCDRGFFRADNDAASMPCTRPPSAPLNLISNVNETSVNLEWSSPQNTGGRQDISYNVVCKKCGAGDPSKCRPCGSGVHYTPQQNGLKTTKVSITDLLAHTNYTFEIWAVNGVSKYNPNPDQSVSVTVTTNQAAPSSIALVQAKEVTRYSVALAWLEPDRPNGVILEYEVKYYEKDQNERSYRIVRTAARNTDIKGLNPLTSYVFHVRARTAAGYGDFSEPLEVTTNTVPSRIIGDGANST

Human EphA6 Fc fusion [2] = biological target: T1, Human EphA6 Fc fusion; test: SPR
Human EphA7 Fc fusion [3] = biological target: T2, Human EphA7 Fc fusion; test: SPR
Mouse EphA4 Fc fusion = biological target: T8, Mouse EphA4 Fc fusion (Mouse, UniProt Q03137 20-547); test: SPR
T8 construct: SPR; Sino Biologics 50575-M02H

Rat EphB1 Fc fusion = biological target: T3, Rat EphB1 Fc fusion; test: SPR
Human EphA4 Fc fusion [4] = biological target: T9, Human EphA4 Fc fusion (Human, UniProt P54764 20-547); test: SPR, Fc-tagged protein captured by anti-human IgG
T9 construct: Bought Fc fusion; also called Sino Biologics 11314-H03H; not shown: Fc of the bought fusion
T9 sequence (P54764 20-547 limits assumed): as above

Human EphA6 Fc fusion [5] = biological target: T4, Human EphA6 Fc fusion; test: SPR, Fc-tagged protein captured by anti-human IgG
Human EphA7 Fc fusion [6] = biological target: T5, Human EphA7 Fc fusion; test: SPR, Fc-tagged protein captured by anti-human IgG
Human EphB4 Fc fusion = biological target: T6, Human EphB4 Fc fusion; test: SPR, Fc-tagged protein captured by anti-human IgG

T8 sequence (Q03137 20-547 limits assumed): as the sequence (P54764 20-547 limits assumed) above, with P59A, N121S, V124G, R250Q, S251N, T270S, K378R, N406S counted along it

Row | Binder | binding result (Human EphA4 Fc fusion [1]) | binding result (Human EphA6 Fc fusion [2]) | binding result (Human EphA7 Fc fusion [3]) | binding result (Mouse EphA4 Fc fusion) | binding result (Rat EphB1 Fc fusion) | binding result (Human EphA4 Fc fusion [4]) | binding result (Human EphA6 Fc fusion [5]) | binding result (Human EphA7 Fc fusion [6]) | binding result (Human EphB4 Fc fusion)
1 | B1 | no binding | no binding | no binding | no binding | no binding |  |  |  | 
2 | B2 | no binding | no binding | no binding | no binding | no binding |  |  |  | 
3 | B3 |  |  |  |  |  | no binding (tested: 5 µM) | no binding (tested: 20 µM) | no binding (tested: 20 µM) | no binding (tested: 20 µM)
4 | B4 |  |  |  |  |  | no binding (tested: 5 µM) | no binding (tested: 20 µM) | no binding (tested: 20 µM) | no binding (tested: 20 µM)
